# Assay results published in a protein production outcome set (Wang et al. 2014).
# Assay: label from the status in PepcDB records
row,Sequence,protein production
1,MHVQEWLETVPAVSIYALVGLVIGLESLGIPLPGEIVLISAALLSSQHGGINPVILGICATVGAVVGDSIGYAIGRKGGRPLLAWLGNKFPRHFGEGHIATAERSFEKWGMWAVFFGRFVALLRIFAGPLAGVLRMPYWKFLIANVLGGIIWAGGTTAVIYYVGVVAESWLKRFSYLGLVAAVLIGLASMLVIKRKAKKAAAEREAAEPETVPAAD,failed
2,MMRPLCFFLLIFLLSGNPVMAAELRPFICVNEKDHLPSLDPQADAWYREAVALAKPDTLRPWDRIVDLYSKAVERGHWKAMHNLASLYRTGWPGGVEKDTQKALDLYQKMIDLKVPQGFYDMAAMIGNRAGVKNPATDGLTFLDKAASLGNPPALTELGRLYIYVAGQDELGLKYTNCAAGQGYAPANYELAMYYRLVAHNYPKAAGYYLLAASQGNDDAAFFMSGVFDKTSPDVDRMWYAPDEKLHKLYDGIYDQLAADPDLRFPNLIKDHPLPPHPTQGYDADRPDWKPGQ,failed
3,MRGSVPSVREIETLLSQLPWRQFQSPRVHLEQYTTPVHLAARIAHHVALCIDEDERRSVQAVDLGTGTGILALALCLAGLNHVLGVDVDSEALELARANAAALWELCPQSVGAVLEFAAVDVQPNSLALAPKSFDVAVLNPPFGTRQRSADIAFLDVACHLSRRFVYSLHKSSTRSYLSRRLERFGCTAQVYARLRFDLPATYVFHRERAVDIDVDLWQIEVKR,not failed
4,MGIFEPFRAIGYITSTVPFSVQRLGTETFVTVSVGKAFQIYNCAKLNLVIISPQLPKKIRALASYRDYTFVAFGNEIAVFRRAHQVATWSKHVAKVDLLLVFGEHVLSLDVEGNMFIWAFKGIEEHLAPIGNLQLTGKFTPTSIVHPDTYLNKVLVGSQEGPLQLWNINTKKMLYQFKGWGSSVTSCVSSPALDVVAIGCADGKIHVHNIKLDEEIVTFEHASRGAVTALSFSTDGRPLLASGGSFGVISIWNLNKKRLQSVIRDAHDSSIISLNFLANEPVLMSASADNSLKMWIFDTNDGDPRLLRFRSGHSAPPLCIRFYSNGRHILSAGQDRAFRLFSVIQEQQSRELSQRHISRRAKKLRLKEEELKLKPVVSFDCAEIRERDWCNVVTCHMDTAEAYVWRLQNFVLGEHILKPCPENPTPIKACAISACGNFAVVGTAGGWIERFNLQSGISRGSYFDMSEKRRYAHDGEVIGVACDSTNTLMISAGYHGDLKVWDFKKRELKSQWDVGCSLVKIVYHRVNGLLATVADDFVIRLYDVVTLKMVREFRGHTDRITDLCFSEDGKWVISSSMDGSLRIWDVILAKQIDGVHVDVPITALSLSPNMDVLATAHSDQNGVYLWVNQSMFSGLPSVESYASGKDVVNVKLPSVSALTSSEADDDMDRQVLENSEALQASSFSISQKQIPELVTLSLLPKSQWQSLINLDIIKARNKPIEPPKKPEKAPFFLPSIPSLSGDILFKANDSEADGENEENNKKDQNSMKNFDALESPFSKHLKSSWDSKHFLDFTNYMKSLSPSALDMELRMLEIIDEDVEEELIKRPEFILIGQLLDYFINEVSCKNDFEFMQAVVKLFLKIHGETIRCHPSLQEKAKKLLETQSLVWQKMEKLFQSTRCIVTFLSNSQF,failed
5,GSSGSSGWVAFDKQVLSFDAYLEEEVLDKSQTNYRIRYYKIYFYPEDDTIQVNEPEVKNSGLLQGTSIRRHRITLPPPDEDQFYTVYHFNVGTEVVFYGRTFKIYDCDAFTRNFLRKIGVKVNPPVQSGPSSG,not failed
6,PLKEQKVINTANITTNSKLDLAEYENGLMNIAKEQFDTENHVLQLNQYIPEKLVDELVAKVKAPVLTNIIEQDYFGKQNSNELSLSGVMIGLAMSSSVSNEEAMSKGTEVANQLIEAIHKNDKYNKSPITFAIFKQESTSSLKNGTYIASATVQKNDTNIGNWNAIEEKAYSYPSDEFTQAHGEDNTKIDDFAKEMKGFSPGDFIPVNAKVSYKKNQMDTLNMNIVIKYNGKTELMALTQLAAQIMLEQLPKDAKVQLQIKSENKIEAIVIKEKNSDKPFV,not failed
7,MKILKISLTVVVEVALIYLFSLLVGWSFMEAFFLGSLAIFGAIWLIALNINQNNNIDHTIYKTGTVKPFQMTWGPYTTGATSLTAFSFIITTIYYLPYFL,failed
8,MIDILNLALPYFGLIFVGFACGRWKKLPEQGLVWMNFFLVFVSLPALFFRIMSKTPFEELNNLPFVLATTLATAIAFFLSGMLGRLIGKLSMREATMAALSGGYGNIGYMGPGLALAVLGTQAAAPTALIFCFDTIFLFSIVPLGMALTAADKRPLIPTIIAVLREILFHPLIVAAYCGAAAAAFHVELPVAVDKMLAFLQNAAAPVALFTLGVTVALRPFGRVPWEIPSLVAVKLLLHPVIVFCLVLAFGPFSPEWAATAVLMASLPPALNVFVIARQYNTWVEPASVAVLIGTFMSVVTLTTVMWLIRTGQIPFPA,failed
9,MSTFQQPDPRDRPARLTVGVVGAGRVGPALAASLQLAGHRPVAVSGVSDTSVRRAAAMLPDVPLVTPAQVLERADLVLLTVPDDALPGLVEGLAETGAVRPGQLLVHTSGRYGTKVLDPARSAGALPLALHPAMTFTGTAVDVQRLAGCSFGVTAPDELRLAAEALVIEMGGEPEWIAEENRPLYHAALALGANHLVTLVAESMELLRTAGVEAPDHMLGPLLGAALDNALRSGDGALTGPVARGDAGTVAAHVAELRKHAPGTVPGYLAMARATADRALAHGLLKPELAEDLLGVLANGTEGDAG,failed
10,MIKLQLKLQGSVSVQVNAGPLAYARAFLDDTNTKRYPDNKVKLLKEVFRQFVEACGQALAVNERLIKEDQLEY,failed
11,MVSTLGSDTFTSISAHDLHGKLGNIHLIDVRENDDFKEGHIPTSRNIPMDILLKEPEKYINKTDEYYIVCQAGVKSEKTCKELWSKGYKVINIKDGTDSYKQPLEHHHHHH,failed
12,MELWLVRHGETLWNREGRLLGWTDLPLTAEGEAQARRLKGALPSLPAFSSDLLRARRTAELAGFSPRLYPELREIHFGALEGALWETLDPRYKEALLRFQGFHPPGGESLSAFQERVFRFLEGLKAPAVLFTHGGVVRAVLRALGEDGLVPPGSAVAVDWPRRVLVRLALDGEEATG,not failed
13,MIILPKTLYEEMLNHCLNSLPIEACGLLGGVIEDEKRIVKKVYLLTNVDQSPEHFSMDPLEQFAAVKDMRKNGWVLLGNFHSHPTTPARPSEEDKRLAFDKSLSYLILSLMDEKNPVLKSFRIYESYVEEEEIQIILEHHHHHH,failed
14,MRTRIERTEEMVEQLPLVSVLIPTYNRPSYFEKALCSVLEQTYPNIEIIVGDDSTNDETEKLLQKYLCDHSNIIYIKNRSTLGQFENALMLFNEANGEYINFLMDDDVFHVNKIEKMMKYFFNDLDNEIKLVTSHRQVIDDKGKELRHIYSTVRLFEEDTIIEGTELGNKVIVDQKNYIGEPTTVLFRKNDLQEPYGIFDKRRYLCNVDIASWLSLLSKGKAVYIAETLSYFRLHPDQQLNESNKMMDGLEDFSHSIIAGEQYGFLSTEKELDKAITNFLDYARRIVPSSILYTLDYYQKIRAKKINIEKKKQHINNNSSLPKVSILIPAYNRPYYLELALNSALNQTYENIEIIISDDSTNNEVNAMIQPYLREYECITYVKNETPLVAENFNKCVELANGDYMNFLLDDDLFHHEKIERMMKYFLTLENISFVTSYRELIDENGEILPPSTLNMKIAKETTLFEGKELGNYMLKNLKNVVGEPTTVLFNRDLFDGKFGYFKGKAYSAINDIATWLDMMRKGKVVYIHEPLSYFRQHSGQNQKQMHFILMTIEEWIELIIDAYNSGFLSSESEYKESLSYCLENAGFIVKDAVRNGELDQIYNEKIKKGLNKLVAHMFEKESCYCQYCNQQFEKFSPWPAHYDFPKYKFEMWNKDTGICPVCNSMDRERLYRAYIETETDLLNRNYTMLHIAPEAKLRDWFNEYKNITYVCGDLEPKDPLMKEIDVTRITYDSNTFDVILCSHVLEHVPDDDKAMRELYRVLKPNGWGIIQVPIVMNVDFIIENELIVTPQLRKLAFGQEDHVRIYNQSGFIQRLMNAGFKVELYNIAEKQGMKGARKFGLSETDMLYIVRK,failed
15,AIAAADISESSGADCKGDPRNSAKLDADYPLRVLYCGVCSLPTEYCEYMPDVAKCRQWLEKNFPNEFAKLTVENSPKQEAGISEGQGTAGEEEEKKKQKRGGRGQIKQKKKTVPQKVTIAKIPRAKKKYVTRVCGLATFEIDLKEAQRFFAQKFSCGASVTGEDEIIIQGDFTDDIIDVIQEKWPEVDDDSIEDLGEVKK,failed
16,MVSVSVVIATLKPRDEIEAIQCLEDQTFDDFEVIVCDKSPVTRARNEGIRQSSSDKIVFLDDDSRPQPGYLEKANDVLETEAAYAGRTIHPVDDVFARHFTAHYDWGGDPCYVDHFWGCNMGVHRDVFKTVGGWDEEMGWGHEEKELARRVRSEFDIRYDPELVVDHPYASSITDYWKKQYKLETKSPYYWSKCNVSRADQLKNIFCETFDPLNYVRITPVATMIEAGSTVAKTAGRLRGFLDHTHHEEGRGGVPDIDRPSQSPERSGLEHHHHHH,failed
17,MQVELIIKNLKVYNSYFKKFIKSDVLINEGKFLHIGKGYEDRLWSENIIDGEDKYIIPGLIDIHMHIESSMTIPREFSKAAIKHGVTTVVADPHEIANVFGVRGIEEFIKFKGNLDIFYGIPSSVPSTSSSLETTGEKITHNEVKRLLEYDNIICLGEVMNFKDLIEDDDSNINKIINISKEKNIPLEGHCPKIQGVDLSLYIYRGVNGDHTQQSVGSLQEKIQNGMFIEMQHKSMTLENIKFLIENNLYEHFALVTDDVMADKLVKGHLDEILKEAVKLGMSIENAIYASTYTPARRMNLLDRGTIAPGKLADFILLDSIEDFNIYEVYKNGEMVFNRDKGLKEEFFEDKSKLDYRFYNSIELNNITKESLEVKVPNKYKNKVNCRTMKVLKNTTFTEEGEVTLNVYNNILQWEKSSCALIAVFERYGKNNNISFGLVEGEIIKEGAIATTWAHDHHNLMVMGRNISDMTIAANEVINSRGGYVVSKNNEVIAKLELPIGGIISDEPIEIIGEKLGEVRNAMRDLGYNHMNEIMSFSTLSLPVSPALKITDKGLIDVKKGSIVSLFKKGLY,failed
18,MSDEVPEILLAHYLKTLKLPTFQREYQKLARLCATEGVDHVEYLLRLSEREMIERDRRKVERRIKAARFPVVKSLDSFDFAAIPKLNKMQVLELARCEWIERRENVIALGPSGTGKTHVALGLGLAACQKGLSVGFTTAAALVSEMMEARDERRLLRFQKQMAAYQLLIIDELGFVPLSKTGAELLFELISQRYERGATLITSNLPFDEWTETLGSERLTGALLDRITHHVNILEMNGDSYRLAQSRARKAGLEHHHHHH,not failed
19,MNITLLKSKIHRASVTEARLDYIGSISIDEKLLQASGILEYEKVQVVNVNNGARFETYTIATQEEGVVCLNGAAARLAEVGDKVIIMSYADFNEEEAKTFKPKVVFVDENNTATKITNYEKHGAIF,not failed
20,MNCKFEGSKVFFTSDTHFYHGNIIRFCNRPFKDVGMMNETIISNWNNTVGLDDIVFHLGDFCLGGSAEWTKILDRLNGKIYLILGNHDLKNLRQGYVDRFEHLAMQMHIEVNKQKIYLNHYPFLCFDGGYKDVWQLFGHVHTRNNNTGIDATRLQHLYPTQYDVGVDNNNFMPVSFAQVKTIIEKQIKQSKMEELEHHHHHH,not failed
21,MNLELLTLAVGAYAAVLAFLGWLGYRRTRSAADYLVGGREIHPVLMALAYGSTFISTSAIVGFAGVAALMGMGLLWLTMLNILLGVFVAFVVFGRPTRRLGAALDAHTFPELLGRRYRSRFIQGFAGGTIALLMPLYAAAVLIGGARFLEVQLRLDYHMALFVFAAITVGYVLFGGLKGVVYTDAFQAVLMVCGMLVLLVATYAQVGGLSAHQALTDLADQVPPALRAQGHRGWTAMPAAGSPLWWQMVSTIVLGVGIGVLAQPQLTVRFMTVKSGRELHRALVPGGLFLLLMAGVAYVVGSLTNLWYFQRTGKIALAIMTDPATGKPNVDRLMPLYTQAAMPEWFAYLFMLALLAAAMSTLSAQFHAIGTAIGRDLYEQAFRLGGGAERTVLLARAGILAGFAGTVLLAWNLGPGVIAIATALFFGMCAATFLPAFVSALFWARSTRAGVIAGMLAGFGAWALWVLFVHERESAALGVVKALTGRTSLGAGTTWALVDPIVVALPIAALVTVVGSLAGRAAPGAETGGPARTREGGLDAGLR,failed
